A word on the EC50 (read off the curve): it is the midpoint of the concentration-response curve. Higher therefore signals a less potent agent. A word on the Kd: it is the concentration at which binding is half-saturated. A higher Kd goes with lower affinity. What is called koff is the rate constant with which the complex falls apart. The term kon denotes a measure of how fast the partners come together.

For one assay, the target named is T1, HcoV-229E S protein (HcoV-229E, UniProt P15423 16-1115).
T1 sequence: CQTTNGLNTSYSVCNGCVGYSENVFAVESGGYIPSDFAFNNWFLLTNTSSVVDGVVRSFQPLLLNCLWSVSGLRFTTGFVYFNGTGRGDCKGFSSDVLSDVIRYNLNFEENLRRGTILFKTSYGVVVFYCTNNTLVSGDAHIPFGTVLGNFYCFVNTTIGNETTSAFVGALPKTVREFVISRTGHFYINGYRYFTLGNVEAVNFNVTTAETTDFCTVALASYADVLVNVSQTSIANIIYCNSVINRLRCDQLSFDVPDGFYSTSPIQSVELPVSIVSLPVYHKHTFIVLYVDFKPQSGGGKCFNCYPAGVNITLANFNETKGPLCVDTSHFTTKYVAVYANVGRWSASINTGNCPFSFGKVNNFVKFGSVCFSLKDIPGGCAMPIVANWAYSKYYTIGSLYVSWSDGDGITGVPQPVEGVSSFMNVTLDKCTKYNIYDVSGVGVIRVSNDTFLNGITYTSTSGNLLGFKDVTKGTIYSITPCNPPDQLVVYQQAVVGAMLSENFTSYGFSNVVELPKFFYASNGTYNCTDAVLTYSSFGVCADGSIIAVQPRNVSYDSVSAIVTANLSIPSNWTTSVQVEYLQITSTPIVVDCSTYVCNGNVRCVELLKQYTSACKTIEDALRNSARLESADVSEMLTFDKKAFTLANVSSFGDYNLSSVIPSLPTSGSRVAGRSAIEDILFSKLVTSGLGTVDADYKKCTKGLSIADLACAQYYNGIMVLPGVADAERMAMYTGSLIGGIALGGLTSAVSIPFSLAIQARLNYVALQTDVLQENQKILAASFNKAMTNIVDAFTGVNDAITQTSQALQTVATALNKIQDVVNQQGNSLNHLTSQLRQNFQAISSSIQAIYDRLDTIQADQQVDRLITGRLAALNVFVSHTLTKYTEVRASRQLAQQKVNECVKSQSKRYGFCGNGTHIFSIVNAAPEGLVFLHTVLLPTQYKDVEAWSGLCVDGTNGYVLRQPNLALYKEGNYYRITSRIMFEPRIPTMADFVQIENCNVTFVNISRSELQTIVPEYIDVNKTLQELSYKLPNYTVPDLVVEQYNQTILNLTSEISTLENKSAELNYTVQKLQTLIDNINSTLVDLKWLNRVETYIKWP
In words: direct ELISA, OD450. In general terms: ELISA stands for enzyme-linked immunosorbent assay.

The next assay has as its target T2, HcoV-OC43 S protein (HcoV-OC43, UniProt P36334 14-1297).
T2 sequence: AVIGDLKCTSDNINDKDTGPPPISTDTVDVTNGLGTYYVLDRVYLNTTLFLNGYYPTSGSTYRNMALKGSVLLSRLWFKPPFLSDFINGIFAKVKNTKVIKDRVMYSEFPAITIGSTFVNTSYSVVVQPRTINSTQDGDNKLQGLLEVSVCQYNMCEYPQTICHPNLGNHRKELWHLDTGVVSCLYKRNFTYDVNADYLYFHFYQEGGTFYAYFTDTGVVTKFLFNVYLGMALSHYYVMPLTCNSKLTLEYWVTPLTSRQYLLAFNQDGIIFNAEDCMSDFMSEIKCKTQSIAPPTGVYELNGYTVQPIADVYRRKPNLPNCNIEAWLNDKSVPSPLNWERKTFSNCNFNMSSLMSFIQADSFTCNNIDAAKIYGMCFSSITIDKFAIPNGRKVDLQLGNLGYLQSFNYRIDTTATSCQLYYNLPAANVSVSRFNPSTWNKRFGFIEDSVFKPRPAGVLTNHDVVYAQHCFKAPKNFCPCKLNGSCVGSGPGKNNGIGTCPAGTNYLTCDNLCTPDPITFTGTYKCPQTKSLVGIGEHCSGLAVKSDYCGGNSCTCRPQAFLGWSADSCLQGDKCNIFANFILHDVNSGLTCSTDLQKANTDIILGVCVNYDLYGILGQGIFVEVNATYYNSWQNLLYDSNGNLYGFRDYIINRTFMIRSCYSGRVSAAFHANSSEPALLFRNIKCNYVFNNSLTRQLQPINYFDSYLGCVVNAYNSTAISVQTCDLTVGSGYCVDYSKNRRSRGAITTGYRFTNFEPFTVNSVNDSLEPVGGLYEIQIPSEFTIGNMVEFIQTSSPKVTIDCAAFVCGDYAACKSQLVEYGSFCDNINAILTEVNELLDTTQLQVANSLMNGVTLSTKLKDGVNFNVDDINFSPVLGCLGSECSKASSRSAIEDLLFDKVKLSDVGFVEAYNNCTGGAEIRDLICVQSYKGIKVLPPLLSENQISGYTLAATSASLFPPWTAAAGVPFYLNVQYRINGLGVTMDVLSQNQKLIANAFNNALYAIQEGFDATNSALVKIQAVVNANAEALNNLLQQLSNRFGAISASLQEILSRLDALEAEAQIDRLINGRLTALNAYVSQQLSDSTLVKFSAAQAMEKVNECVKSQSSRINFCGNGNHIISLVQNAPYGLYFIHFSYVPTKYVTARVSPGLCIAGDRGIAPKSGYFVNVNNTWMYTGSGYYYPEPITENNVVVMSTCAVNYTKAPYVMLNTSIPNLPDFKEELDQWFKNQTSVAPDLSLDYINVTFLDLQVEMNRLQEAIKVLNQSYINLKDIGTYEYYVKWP
The assay is described as follows: direct ELISA, OD450.

For another assay, the target named is T3, HcoV-NL63 S protein (HcoV-NL63, UniProt Q6Q1S2 19-1296).
T3 construct: also called hCov-NL63 S1
T3 sequence: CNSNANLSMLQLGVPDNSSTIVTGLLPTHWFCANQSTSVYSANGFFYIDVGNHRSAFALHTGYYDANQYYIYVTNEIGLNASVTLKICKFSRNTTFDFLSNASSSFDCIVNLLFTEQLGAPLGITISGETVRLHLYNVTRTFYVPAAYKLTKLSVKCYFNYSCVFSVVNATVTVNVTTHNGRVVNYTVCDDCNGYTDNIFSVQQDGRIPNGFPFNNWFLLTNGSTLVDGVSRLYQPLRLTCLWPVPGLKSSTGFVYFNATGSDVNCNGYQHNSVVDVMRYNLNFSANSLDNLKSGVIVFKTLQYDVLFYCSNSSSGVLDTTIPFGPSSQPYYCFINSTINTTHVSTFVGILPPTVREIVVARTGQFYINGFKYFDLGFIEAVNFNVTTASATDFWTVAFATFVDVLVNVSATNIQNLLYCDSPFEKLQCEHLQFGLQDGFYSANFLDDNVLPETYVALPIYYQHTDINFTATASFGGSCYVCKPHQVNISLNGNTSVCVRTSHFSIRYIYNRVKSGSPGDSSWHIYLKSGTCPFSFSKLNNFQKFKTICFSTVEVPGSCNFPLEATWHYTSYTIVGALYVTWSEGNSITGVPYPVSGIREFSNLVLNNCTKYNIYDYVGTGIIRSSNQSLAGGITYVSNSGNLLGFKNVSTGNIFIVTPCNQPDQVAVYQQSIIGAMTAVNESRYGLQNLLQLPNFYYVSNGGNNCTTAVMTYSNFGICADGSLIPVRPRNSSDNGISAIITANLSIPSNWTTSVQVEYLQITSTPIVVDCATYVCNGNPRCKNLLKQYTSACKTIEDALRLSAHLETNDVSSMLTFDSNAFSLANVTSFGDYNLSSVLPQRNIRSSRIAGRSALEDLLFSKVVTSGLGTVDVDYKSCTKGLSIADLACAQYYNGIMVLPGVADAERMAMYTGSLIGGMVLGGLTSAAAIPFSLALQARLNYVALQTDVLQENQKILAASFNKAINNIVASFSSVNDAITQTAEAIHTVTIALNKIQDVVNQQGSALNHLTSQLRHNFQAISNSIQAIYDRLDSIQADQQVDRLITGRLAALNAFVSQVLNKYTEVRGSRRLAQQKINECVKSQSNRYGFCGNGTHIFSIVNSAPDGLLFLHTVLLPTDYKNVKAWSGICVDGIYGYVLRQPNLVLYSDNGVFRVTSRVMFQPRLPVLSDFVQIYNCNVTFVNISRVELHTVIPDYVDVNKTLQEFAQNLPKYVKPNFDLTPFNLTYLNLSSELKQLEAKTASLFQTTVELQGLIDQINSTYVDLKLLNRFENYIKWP
In words: direct ELISA, OD450.

Assay [1] addresses RBD (receptor binding domain) of the SARS-CoV-2 S1 (SARS-CoV-2, UniProt P0DTC2 319-541).
For assay [2], the target named is SARS-CoV-2 Spike S1 protein (SARS-CoV-2, UniProt P0DTC2 16-685).

B1: rabbit monoclonal antibody 9H1 against the SARS-CoV-2 S1 (antibody, V domains shown)
VH: QSVEESGGRLVTPGTPLTLTCTVSGFSLSRYAMSWVRQAPGKGLEWIGIIVDSGHTAYASWAKGRFTISRTSTTVDLKMTSLTTEDTATYFCARETGGGAFYVFEFWGPGTVVTVSS
VL: AQVLTQTPSSVSAAVGGTVTINCQASEDIYDNLVWYQQKPGQPPKLLIYDASTLAFGVSSRFRGSGSGTHFTLTMRDVQCDDAATYYCQGEFSCSSGDCTAFGGGTEVVVKG
Turning to B1, the binding result with HcoV-229E S protein, with HcoV-OC43 S protein and with HcoV-NL63 S protein was “no binding” throughout. Further, the “EC50 (read off the curve)” value in assay [1] is roughly 0.02 µg/mL. The same molecule had a dissociation constant Kd in assay [2] of 0.769 nM. The koff in assay [2] was found to be 0.00025 s⁻¹. This molecule had a kon in assay [2] of 325000 M⁻¹ s⁻¹.

B2: rabbit monoclonal antibody 5E1 against the SARS-CoV-2 S1 (antibody, V domains shown)
VH: QSVEESGGRLVTPGTPLTLTCTVSGIDLSSYAMGWVRQAPGKGLEYIGIIYISGLTYYASWAKGRFTISKTSTTVDLKIPSPTTEDTATYFCARGEYNSHSHYLLWGPGTLVTVSS
VL: AYDMTQTPSSVSEPVGGTVSIKCQASQNIYSNLAWYQQKPGQRPKLLIYDASQLASGVPSRFKGSGSGTEYTLTISGVECADAATYYCQQGFESSDIFNVFGGGTEVVVKG
Consider B2, for which, in the assay with HcoV-229E S protein, the binding result was “no binding”. For the same molecule, in the assay with HcoV-OC43 S protein, the binding result is on record as “no binding”. Besides, in the assay with HcoV-NL63 S protein, the binding result is given as “no binding”. In assay [2], this molecule yielded a Kd of no more than 0.138 nM, a koff of no more than 1e-05 s⁻¹ and a kon of 72300 M⁻¹ s⁻¹.
